Target: MERS spike on pseudotyped lentiviral particles (MERS coronavirus) (UniProt K9N5Q8)
Test: cell-based or functional assay

Sequence of UniProt K9N5Q8 (K9N5Q8 18-1353): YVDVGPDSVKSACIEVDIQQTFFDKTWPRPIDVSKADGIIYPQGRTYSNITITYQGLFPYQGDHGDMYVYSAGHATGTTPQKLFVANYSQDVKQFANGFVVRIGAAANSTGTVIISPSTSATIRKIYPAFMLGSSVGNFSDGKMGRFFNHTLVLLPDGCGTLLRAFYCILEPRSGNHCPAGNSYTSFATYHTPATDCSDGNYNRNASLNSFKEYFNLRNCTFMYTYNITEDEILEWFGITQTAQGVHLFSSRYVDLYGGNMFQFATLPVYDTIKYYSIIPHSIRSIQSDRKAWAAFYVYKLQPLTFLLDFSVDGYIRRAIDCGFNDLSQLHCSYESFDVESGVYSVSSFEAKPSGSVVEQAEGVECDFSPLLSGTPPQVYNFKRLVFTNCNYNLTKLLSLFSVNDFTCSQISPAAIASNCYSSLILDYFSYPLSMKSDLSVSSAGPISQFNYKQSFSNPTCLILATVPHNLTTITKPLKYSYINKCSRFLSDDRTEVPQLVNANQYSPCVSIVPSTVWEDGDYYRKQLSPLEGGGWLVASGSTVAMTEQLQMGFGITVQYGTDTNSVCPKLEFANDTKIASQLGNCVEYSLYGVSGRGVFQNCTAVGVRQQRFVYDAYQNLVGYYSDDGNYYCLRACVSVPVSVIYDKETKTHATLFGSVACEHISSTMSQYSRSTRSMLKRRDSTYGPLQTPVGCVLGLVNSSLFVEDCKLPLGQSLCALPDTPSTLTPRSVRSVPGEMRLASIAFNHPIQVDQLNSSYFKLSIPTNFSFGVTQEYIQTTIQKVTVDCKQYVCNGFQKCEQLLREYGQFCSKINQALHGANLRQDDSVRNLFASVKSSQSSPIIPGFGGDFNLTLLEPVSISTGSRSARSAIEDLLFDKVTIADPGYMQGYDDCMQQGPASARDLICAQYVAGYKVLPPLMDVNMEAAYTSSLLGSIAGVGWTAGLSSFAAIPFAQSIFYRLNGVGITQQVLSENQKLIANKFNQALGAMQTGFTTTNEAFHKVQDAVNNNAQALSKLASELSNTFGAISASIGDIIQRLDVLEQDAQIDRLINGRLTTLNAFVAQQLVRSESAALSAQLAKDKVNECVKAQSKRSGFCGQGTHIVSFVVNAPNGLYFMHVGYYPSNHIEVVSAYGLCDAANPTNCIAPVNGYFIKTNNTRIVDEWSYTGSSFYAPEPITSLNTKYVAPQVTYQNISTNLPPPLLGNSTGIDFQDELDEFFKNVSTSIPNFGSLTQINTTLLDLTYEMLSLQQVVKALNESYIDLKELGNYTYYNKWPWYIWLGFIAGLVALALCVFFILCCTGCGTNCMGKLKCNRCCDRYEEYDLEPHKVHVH

**Q.** With “DPP4 recombinant protein (from UniProt P27487 39-766) (receptor)” as the substance, how does the IC50, pseudovirus microneutralization assay, H1650 target cells read?
**A.** Its IC50, pseudovirus microneutralization assay, H1650 target cells is greater than 48000 pM.

**Q.** With “NA75-DPP4, displayed on lentiviral-based multivalent particles (from UniProt P27487 30-766) (receptor)” as the substance, how does the IC50, pseudovirus neutralization assay, H1650 target cells read?
**A.** The IC50, pseudovirus neutralization assay, H1650 target cells was 0.87 pM.

From US20250289867A1
